The text below walks through data of publication PMC9669019, “Molecular basis for integrin adhesion receptor binding to p21-activated kinase 4 (PAK4)” (Communications Biology, 2022).

Several values for one entry are separate records, joined by “and”; a condition that tells them apart may be missing. Equal entries are not always repeated. Ends that are not written are not given here. helical region = not defined here

Assay [1] has as its target T1, PAK4 catalytic domain, purified recombinant (PAK4-cat) (human, UniProt O96013 286-591).
T1 construct: catalytic domain of PAK4 (UniProt O96013); residues 300–589 built in PDB 7S48 chain A; His tag is cleavable by TEV protease; also called PAK4 kinase domain; wild-type PAK4; source: E. coli BL21-CodonPlus(DE3)RILP, purified (HisTrap, Resource Q, Superdex 200)
Put plainly: pull-down; His-tagged β5 tails on Ni-NTA beads; varying concentrations of purified PAK4-cat in buffer X-T, 2 h, 4 °C; apparent affinity, one-site specific-binding model, three independent experiments. Conditions: both partners purified.

Assay [2] concerns the target T1, PAK4 catalytic domain, purified …. The assay can be described thus: cell-based or functional assay.
Assay [3] deals with T2, PAK4 catalytic domain (human, UniProt O96013 286-591).
T2 construct: the GFP-PAK4-cat of the pull-downs is 302-591; The His tag is cleavable by TEV protease; also called PAK4 kinase domain; source: E. coli BL21-CodonPlus(DE3)RILP, purified (HisTrap, Resource Q, Superdex 200)
Put plainly: ITC; Nano-ITC, 25 °C, PBS pH 7.4; 407 µM integrin β5^743–799 in the syringe titrated into 44 or 72 µM PAK4cat in the sample cell; PAK4cat pre-incubated with 5 mM MgCl2 and 1 mM AMP-PNP; 20 injections of 2.5 µL. Conditions: both partners purified.

In assay [4] the target is T1, PAK4 catalytic domain, purified …. Put plainly: ITC; Nano-ITC, 25 °C, PBS pH 7.4; 407 µM integrin β5 743–799 in the syringe, 44 and 72 µM PAK4cat (pre-incubated with 5 mM MgCl2 and 1 mM AMP-PNP) in the cell; 20 injections of 2.5 µL. Conditions: both partners purified.

T1 sequence (O96013 286-591): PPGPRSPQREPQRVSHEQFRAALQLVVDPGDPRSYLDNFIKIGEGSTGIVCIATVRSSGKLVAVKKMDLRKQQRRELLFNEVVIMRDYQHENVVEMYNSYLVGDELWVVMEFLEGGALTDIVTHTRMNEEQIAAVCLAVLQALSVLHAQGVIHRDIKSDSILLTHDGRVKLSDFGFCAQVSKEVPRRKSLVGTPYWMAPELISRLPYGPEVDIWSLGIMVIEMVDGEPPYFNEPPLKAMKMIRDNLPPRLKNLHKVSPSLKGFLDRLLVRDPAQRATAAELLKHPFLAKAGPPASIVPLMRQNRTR
T2 sequence (O96013 286-591): as above

B1: His-tagged recombinant model of the integrin β5 cytoplasmic tail (domain or fragment)
chain: {His‑tag-helical region-Gly4}-KLLVTIHDRREFAKFQSERSRARYEMASNPLYRKPISTHTVDFTFNKFNKSYNGTVD
modifications: not fully specified; reading uncertain
With B1, the Kd in assay [1] is about 1.8 µM.

B2: integrin β5 peptide, residues Glu760-Ser770 (peptide)
peptide: Ac-ERSRARYEMAS-NH2
In the case of B2, the “inhibition of PAK4 phosphorylation of a LIMK1 10mer peptide (…, 50 µM) in a radioactive in vitro kinase assay, β5 peptide 0–1024 µM, 1 mg/ml BSA: IC50” value in assay [2] is 160 µM.

B3: 6xHis integrin β5 full-length cytosolic peptide (residues 743–799) (domain or fragment, UniProt P18084 743-799, looked up)
chain: KLLVTIHDRREFAKFQSERSRARYEMASNPLYRKPISTHTVDFTFNKFNKSYNGTVD
modifications: also: 6xHis tag, position not given here
notes: also called integrin β5 cytoplasmic tail
With B3, in assay [3], the Kd was 5.1 µM and 4.8 µM; the “stoichiometry N” value is 1.4 and 0.7.

B4: 6xHis integrin β5 full-length cytosolic peptide (residues 743–799) (domain or fragment, UniProt P18084 743-799, looked up)
chain: B3 chain
modifications: also: 6xHis tag, position not given here
notes: subcloned into a pET32 vector
B4: in assay [4], the Kd came to 4.95 ± 1.5 µM, the dH was -2.02 ± 0.179 kcal/mol and the “stoichiometry N” value turned out to be 1.05 ± 0.35.
